# Measurements: patent US20210277068A1 (SHANXI KANGBAO BIOLOGICAL PRODUCT, published 2021)
# * marks the point of attachment. Palmitoyl = CCCCCCCCCCCCCCCC(=O)*
# T1: N39 (HIV-1, N-terminal acetyl (Ac-); C-terminal amide (-NH2))
# T1 peptide: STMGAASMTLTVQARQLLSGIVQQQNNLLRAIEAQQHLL
# B1: LP-62 (peptide)
# peptide: Ac-EQKIEELLKKAEEQQKKNEEELKKLEK(Palmitoyl)-NH2
# SMILES: CCCCCCCCCCCCCCCC(=O)NCCCC[C@H](NC(=O)[C@H](CCC(=O)O)NC(=O)[C@H](CC(C)C)NC(=O)[C@H](CCCCN)NC(=O)[C@H](CCCCN)NC(=O)[C@H](CC(C)C)NC(=O)[C@H](CCC(=O)O)NC(=O)[C@H](CCC(=O)O)NC(=O)[C@H](CCC(=O)O)NC(=O)[C@H](CC(N)=O)NC(=O)[C@H](CCCCN)NC(=O)[C@H](CCCCN)NC(=O)[C@H](CCC(N)=O)NC(=O)[C@H](CCC(N)=O)NC(=O)[C@H](CCC(=O)O)NC(=O)[C@H](CCC(=O)O)NC(=O)[C@H](C)NC(=O)[C@H](CCCCN)NC(=O)[C@H](CCCCN)NC(=O)[C@H](CC(C)C)NC(=O)[C@H](CC(C)C)NC(=O)[C@H](CCC(=O)O)NC(=O)[C@H](CCC(=O)O)NC(=O)[C@@H](NC(=O)[C@H](CCCCN)NC(=O)[C@H](CCC(N)=O)NC(=O)[C@H](CCC(=O)O)NC(C)=O)[C@@H](C)CC)C(N)=O
# notes: N-terminally truncated, based on LP-52
# B2: LP-63 (peptide)
# peptide: Ac-QKIEELLKKAEEQQKKNEEELKKLEK(Palmitoyl)-NH2
# SMILES: CCCCCCCCCCCCCCCC(=O)NCCCC[C@H](NC(=O)[C@H](CCC(=O)O)NC(=O)[C@H](CC(C)C)NC(=O)[C@H](CCCCN)NC(=O)[C@H](CCCCN)NC(=O)[C@H](CC(C)C)NC(=O)[C@H](CCC(=O)O)NC(=O)[C@H](CCC(=O)O)NC(=O)[C@H](CCC(=O)O)NC(=O)[C@H](CC(N)=O)NC(=O)[C@H](CCCCN)NC(=O)[C@H](CCCCN)NC(=O)[C@H](CCC(N)=O)NC(=O)[C@H](CCC(N)=O)NC(=O)[C@H](CCC(=O)O)NC(=O)[C@H](CCC(=O)O)NC(=O)[C@H](C)NC(=O)[C@H](CCCCN)NC(=O)[C@H](CCCCN)NC(=O)[C@H](CC(C)C)NC(=O)[C@H](CC(C)C)NC(=O)[C@H](CCC(=O)O)NC(=O)[C@H](CCC(=O)O)NC(=O)[C@@H](NC(=O)[C@H](CCCCN)NC(=O)[C@H](CCC(N)=O)NC(C)=O)[C@@H](C)CC)C(N)=O
# notes: N-terminally truncated, based on LP-52; also called P63 with C16
# B3: LP-55 (peptide)
# peptide: Ac-WEQKIEELLKKAEEQQKKNEEELKK(Palmitoyl)-NH2
# SMILES: CCCCCCCCCCCCCCCC(=O)NCCCC[C@H](NC(=O)[C@H](CCCCN)NC(=O)[C@H](CC(C)C)NC(=O)[C@H](CCC(=O)O)NC(=O)[C@H](CCC(=O)O)NC(=O)[C@H](CCC(=O)O)NC(=O)[C@H](CC(N)=O)NC(=O)[C@H](CCCCN)NC(=O)[C@H](CCCCN)NC(=O)[C@H](CCC(N)=O)NC(=O)[C@H](CCC(N)=O)NC(=O)[C@H](CCC(=O)O)NC(=O)[C@H](CCC(=O)O)NC(=O)[C@H](C)NC(=O)[C@H](CCCCN)NC(=O)[C@H](CCCCN)NC(=O)[C@H](CC(C)C)NC(=O)[C@H](CC(C)C)NC(=O)[C@H](CCC(=O)O)NC(=O)[C@H](CCC(=O)O)NC(=O)[C@@H](NC(=O)[C@H](CCCCN)NC(=O)[C@H](CCC(N)=O)NC(=O)[C@H](CCC(=O)O)NC(=O)[C@H](Cc1c[nH]c2ccccc12)NC(C)=O)[C@@H](C)CC)C(N)=O
# notes: LP-52 without the C-terminal LEK
# B4: LP-51 (peptide)
# peptide: Ac-LEANIEELLKKAEEQQKKNEEELKKLEK(Palmitoyl)-NH2
# SMILES: CCCCCCCCCCCCCCCC(=O)NCCCC[C@H](NC(=O)[C@H](CCC(=O)O)NC(=O)[C@H](CC(C)C)NC(=O)[C@H](CCCCN)NC(=O)[C@H](CCCCN)NC(=O)[C@H](CC(C)C)NC(=O)[C@H](CCC(=O)O)NC(=O)[C@H](CCC(=O)O)NC(=O)[C@H](CCC(=O)O)NC(=O)[C@H](CC(N)=O)NC(=O)[C@H](CCCCN)NC(=O)[C@H](CCCCN)NC(=O)[C@H](CCC(N)=O)NC(=O)[C@H](CCC(N)=O)NC(=O)[C@H](CCC(=O)O)NC(=O)[C@H](CCC(=O)O)NC(=O)[C@H](C)NC(=O)[C@H](CCCCN)NC(=O)[C@H](CCCCN)NC(=O)[C@H](CC(C)C)NC(=O)[C@H](CC(C)C)NC(=O)[C@H](CCC(=O)O)NC(=O)[C@H](CCC(=O)O)NC(=O)[C@@H](NC(=O)[C@H](CC(N)=O)NC(=O)[C@H](C)NC(=O)[C@H](CCC(=O)O)NC(=O)[C@H](CC(C)C)NC(C)=O)[C@@H](C)CC)C(N)=O
# Target: T1, N39
# Test: circular dichroism temperature scan at 220 nm of the 1:1 mixture with N39, 10 µM each in PBS pH 7.2
row,Protein,Tm value of the complex [°C]
1,B1,> 70
2,B2,> 70
3,B3,63.1
4,B4,72
